From patent US7670806B2, “ADP-ribosyl acceptor hydrolase 3 (ARH3) polypeptides and methods of use” (The United States of America as represented by the …, priority 2005, dated 2010) come the findings set out here.

The nature of this assay: Hydrolysis of O-acetyl-[14C]ADP-ribose by ARH proteins / PARG (RP-HPLC). The class given is biochemical. The settings on record: 1.5 pmol wild type or mutant human ARH3 or 20 mU PARG, 2 h at 30° C.; mouse ARH1, 2, 3. The protocol:
FIG. 13A is a graph illustrating the results from incubation of 1.5 pmol of mouse ARH3 with or without 5 mM DTT and/or 10 mM MgCl2 as described in FIG. 11B with incubation for 1 h at 30° C. FIG. 13B is a graph illustrating the results from incubation of 1.5 pmol of wild type or mutant human (D77-78) ARH3 or 20 mU of PARG for 2 h at 30° C. *D77,78, assays incubated with 15 pmol of mutant human ARH3 (D77, D78).
FIG. 14A is a graph of the results from incubation with the indicated amount of mouse ARH1, 2, or 3 for 2 h at 30° C. FIG. 14B is a graph of the results from incubation with 230 pmol of mouse ARH1 at 30° C. for the indicated time.
Mouse ARH3 (2 pmol) and 2.5 μM O-acetyl-[^14C]ADP-ribose (5,000 cpm) in 200 μl of buffer containing 50 mM potassium phosphate (pH 7.0), 10 mM MgCl2 and 5 mM DTT were incubated for 2 h at 30° C., before separation of substrate and products using RP-HPLC as described below.
Hydrolysis of O-acetyl-[^14C]ADP-ribose catalyzed by ARH3. Assays containing the indicated concentration of O-acetyl-[^14C]-ADP-ribose (0.1 to 2 nmol, 1,000 to 20,000 cpm) and 1.5 pmol of ARH3 in 200 μl of buffer (50 mM KPO4 (pH 7.0), 10 mM MgCl2, 5 mM DTT) were incubated at 30° C. for 20 min. Substrate and products were separated using RP-HPLC. Amounts of product were corrected for ADP-ribose produced in the absence of ARH3 before calculation of hydrolysis rates.
Because O-acetyl-ADP-ribose was known to be hydrolyzed at alkaline pH Tanny and Moazed (2001), Proc Natl Acad Sci USA. 98(2):415-20, Epub Dec. 26, 2000), it was generated at pH 7.0 in the presence of [^14C-adenine] β-NAD, Sir2, and acetylated histone H3 peptide (FIG. 11A), and the products of Sir2 and ARH3 were analyzed using reverse-phase HPLC at the same pH (FIGS. 11A,B). The products of the ARH3-catalyzed reaction were also analyzed by high resolution-polyacrylamide gel electrophoresis (FIG. 11C). O-acetyl-[^14C]ADP-ribose hydrolase activity was time and ARH3 dependent (FIG. 12) and essentially completely dependent on Mg^2+ (FIG. 13A).
O-acetyl-ADP-ribose hydrolysis by ARH1 was time and ARH1 dependent (FIG. 14b).

B1: ARH3 (D77N/D78N): human ARH3 mutant with dual amino acid replacement D77N/D78N (protein)
chain: MAAAAMAAAAGGGAGAARSLSRFRGCLAGALLGDCVGSFYEAHDTVDLTSVLRHVQSLEPDPGTPGSERTEALYYTNNTAMARALVQSLLAKEAFDEVDMAHRFAQEYKKDPDRGYGAGVVTVFKKLLNPKCRDVFEPARAQFNGKGSYGNGGAMRVAGISLAYSSVQDVQKFARLSAQLTHASSLGYNGAILQALAVHLALQGESSSEHFLKQLLGHMEDLEGDAQSVLDARELGMEERPYSSRLKKIGELLDQASVTREEVVSELGNGIAAFESVPTAIYCFLRCMEPDPEIPSAFNSLQRTLIYSISLGGDTDTIATMAGAIAGAYYGMDQVPESWQQSCEGYEETDILAQSLHRVFQKS
In the case of B1, the “O-acetyl-ADP-ribose hydrolysis (in words)” value was “apparently inactive”.
